From patent US20240261333A1, “NOVEL TARGETS FOR ENHANCING ANTI-TUMOR IMMUNITY” (THE BROAD INSTITUTE, INC., priority 2021, published 2024)

Biological target: T1, B3GNT2 (Homo sapiens, UniProt Q9NY97)
T1 construct: The respective ORFs of candidate genes [CD274 (NM_014143), MCL1 (NM_021960), JUNB (NM_002229), and B3GNT2 (NM_006577)] were synthesized; expressed in transfected cells; host or cells: A375 melanoma cells (lentiviral ORF overexpression)
T1 sequence (Q9NY97 1-397): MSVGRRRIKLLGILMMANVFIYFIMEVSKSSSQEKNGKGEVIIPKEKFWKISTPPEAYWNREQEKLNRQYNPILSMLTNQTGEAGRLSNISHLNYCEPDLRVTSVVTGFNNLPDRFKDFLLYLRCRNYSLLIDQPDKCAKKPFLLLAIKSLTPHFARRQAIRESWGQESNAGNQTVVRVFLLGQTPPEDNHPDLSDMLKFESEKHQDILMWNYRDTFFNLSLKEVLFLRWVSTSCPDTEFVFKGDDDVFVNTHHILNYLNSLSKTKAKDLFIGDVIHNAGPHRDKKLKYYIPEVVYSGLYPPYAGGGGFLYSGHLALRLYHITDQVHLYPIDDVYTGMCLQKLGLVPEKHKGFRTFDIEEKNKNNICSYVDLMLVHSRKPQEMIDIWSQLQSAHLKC
Experiment: Co-IP of FLAG-tagged B3GNT2 followed by mass spectrometry
Assay type: cell-based
Design: C-term IgG / C-term flag: unit not given here
Protocol: Cells were plated in 10-cm cell culture dishes and grown to 60-80% confluency. For each condition, two biological replicates were harvested for co-IP. Cells were washed with PBS and 4 mL of lysis buffer (20 mM HEPES, 1% Triton X-100, 150 mM NaCl, 1 mM EDTA, and 10% glycerol) containing protease inhibitor cocktail was added. Cells were scraped and lysate was incubated at 4° C. under rotary agitation for 1 h. Lysate was centrifuged at 14,000×g for 10 min at 4° C. Supernatant was transferred to a new tube and an aliquot was taken as the input. […] For Western blots, 10 μg/mL Chicken Anti-FLAG (Aves labs ET-DY100) and IgY control (R&D Systems AB-101-C) antibodies were biotinylated (Thermo Fisher Scientific 90407) and added to the respective conditions. Lysates with antibodies were incubated at 4° C. under rotary agitation overnight. For each mL of lysate, 50 μL of Pierce Protein A/G Magnetic Beads (Mass spectrometry; Thermo Fisher Scientific 88803) or Pierce Streptavidin Magnetic Beads (Western blot; Thermo Fisher Scientific 88817) was washed twice with lysis buffer. Lysates with antibodies were added to the beads and incubated at 4° C. under rotary agitation for 4 h. Beads were washed with lysis buffer 3 times and resuspended in lysis buffer for storage. […] This solution was subjected to solid phase extraction to concentrate the peptides and remove unwanted reagents followed by injection onto a Shimadzu HPLC with fraction collector. Eight fractions were collected and after concentration were injected on a Waters NanoAcquity HPLC equipped with a self-packed Aeris 3 μm C18 analytical column 0.075 mm by 20 cm, (Phenomenex). Peptides were eluted using standard reverse-phase gradients. The effluent from the column was analyzed using a Thermo Orbitrap Elite mass spectrometer (nanospray configuration) operated in a data dependent manner for 54 minutes. […] Scaffold Q+S (Proteome Software) was used to provide consensus reports for the identified proteins.

[1] = Co-IP followed by mass spectrometry of B3GNT2, C-term tag, FLAG pull-down
[2] = Co-IP followed by mass spectrometry of B3GNT2, C-term tag, IgG pull-down
[3] = Co-IP followed by mass spectrometry of B3GNT2, N-term tag, FLAG pull-down
[4] = Co-IP followed by mass spectrometry of B3GNT2, N-term tag, IgG pull-down
[5] = Co-IP with FLAG antibody, C-terminally FLAG-tagged B3GNT2, mass spectrometry count, unit not given
[6] = Co-IP with FLAG antibody, N-terminally FLAG-tagged B3GNT2, mass spectrometry count, unit not given
[7] = Co-IP with IgG control antibody, C-terminally FLAG-tagged B3GNT2, mass spectrometry count, unit not given
[8] = Co-IP with IgG control antibody, N-terminally FLAG-tagged B3GNT2, mass spectrometry count, unit not given

Substance | C-term flag [1] | C-term IgG [2] | N-term FLAG [3] | N-term IgG [4] | C-term flag [5] | N-term FLAG [6] | C-term IgG [7] | N-term IgG [8]
PABPC1 | 41 | 30 | 31 | 37 |  |  |  | 
PKM | 3 | 2 | 3 | 2 |  |  |  | 
PPIA |  |  |  |  | 0 | 6 | 0 | 0
PPIB |  |  |  |  | 2 | 0 | 0 | 0
PRRC2A | 5 | 3 | 2 | 3 |  |  |  | 
PRRC2C | 15 | 6 | 6 | 11 |  |  |  | 
PSMA1 |  |  |  |  | 0 | 2 | 0 | 0
PSMA7 | 2 | 0 | 4 | 0 |  |  |  | 
PSMC4 |  |  |  |  | 0 | 3 | 0 | 0
PSMD3 |  |  |  |  | 0 | 3 | 0 | 0
PSMD4 |  |  |  |  | 0 | 2 | 0 | 0
PXN |  |  |  |  | 0 | 2 | 0 | 0
S100A8 |  |  |  |  | 3 | 15 | 5 | 4
SPTAN1 | 3 | 0 | 0 | 0 |  |  |  | 
SRSF3 | 7 | 3 | 6 | 4 |  |  |  | 
SSRP1 | 6 | 0 | 0 | 0 |  |  |  | 
STRAP |  |  |  |  | 3 | 4 | 0 | 0
TAF15 | 10 | 4 | 5 | 10 |  |  |  | 
TECR |  |  |  |  | 9 | 0 | 0 | 0
TFAM | 3 | 0 | 0 | 0 |  |  |  | 
TNC |  |  |  |  | 10 | 0 | 0 | 0
TPI1 | 2 | 0 | 3 | 2 |  |  |  | 
TRIM21 | 0 | 0 | 6 | 0 |  |  |  | 
TUBB |  |  |  |  | 117 | 164 | 10 | 10
TUBB2A |  |  |  |  | 0 | 128 | 0 | 0
TUBB3 |  |  |  |  | 82 | 115 | 0 | 0
UGGT1 |  |  |  |  | 5 | 2 | 0 | 0
XRCC5 |  |  |  |  | 3 | 0 | 0 | 0
YBX3 |  |  |  |  | 7 | 0 | 0 | 0

More lines, now with the values ahead:

C-term flag [1] | C-term IgG [2] | N-term FLAG [3] | N-term IgG [4] | C-term flag [5] | N-term FLAG [6] | C-term IgG [7] | N-term IgG [8] | Substance
 |  |  |  | 4 | 4 | 3 | 0 | PCBP1
2 | 0 | 4 | 0 |  |  |  |  | PCMT1
 |  |  |  | 5 | 2 | 0 | 0 | PIGR
9 | 6 | 6 | 7 |  |  |  |  | PRBP1
 |  |  |  | 11 | 24 | 0 | 0 | PRKDC
 |  |  |  | 0 | 2 | 0 | 0 | PSMA4
0 | 0 | 4 | 0 |  |  |  |  | PSMB5
 |  |  |  | 2 | 0 | 0 | 0 | RAB1B
 |  |  |  | 2 | 0 | 0 | 0 | RNASE1
16 | 3 | 8 | 3 |  |  |  |  | RPL28
8 | 2 | 0 | 4 |  |  |  |  | RPS24
 |  |  |  | 9 | 18 | 5 | 0 | S100A9
 |  |  |  | 0 | 2 | 0 | 0 | SEC16A
 |  |  |  | 5 | 3 | 0 | 0 | SEL1L
 |  |  |  | 2 | 0 | 0 | 0 | SLC27A4
 |  |  |  | 43 | 3 | 3 | 0 | SQSTM1
9 | 3 | 4 | 5 |  |  |  |  | SRSF1
 |  |  |  | 3 | 0 | 0 | 0 | SUMF2
3 | 0 | 0 | 0 |  |  |  |  | SUPT16H
5 | 2 | 5 | 5 |  |  |  |  | SYNM
3 | 0 | 0 | 0 |  |  |  |  | TCP1
8 | 2 | 2 | 4 |  |  |  |  | TNKS1BP1
 |  |  |  | 2 | 0 | 0 | 0 | TOR1AIP2
 |  |  |  | 0 | 76 | 0 | 0 | TUBA1B
 |  |  |  | 119 | 161 | 13 | 0 | TUBB4B
411 | 337 | 402 | 452 |  |  |  |  | VIM
